From PMC9396398, “Crystal structure of Ankyrin-G in complex with a fragment of Neurofascin reveals binding mechanisms required for integrity of the axon initial segment” (The Journal of Biological Chemistry, 2022)

B1: Nfasc ankyrin-binding domain (ABD, residues 1187-1214) [not stated] / AnkG ANK repeats (residues 38-855, R1-24) [not stated] (parent complex)
chain 1: SDDSLVDYGEGGEGQFNEDGSFIGQYTV
chain 2: KSDANASYLRAARAGHLEKALDYIKNGVDVNICNQNGLNALHLASKEGHVEVVSELLQREANVDAATKKGNTALHIASLAGQAEVVKVLVTNGANVNAQSQNGFTPLYMAAQENHLEVVRFLLDNGASQSLATEDGFTPLAVALQQGHDQVVSLLLENDTKGKVRLPALHIAARKDDTKAAALLLQNDTNADIESKMVVNRATESGFTPLHIAAHYGNINVATLLLNRAAAVDFTARNDITPLHVASKRGNANMVKLLLDRGAKIDAKTRDGLTPLHCGARSGHEQVVEMLLDRAAPILSKTKNGLSPLHMATQGDHLNCVQLLLQHNVPVDDVTNDYLTALHVAAHCGHYKVAKVLLDKKANPNAKALNGFTPLHIACKKNRIRVMELLLKHGASIQAVTESGLTPIHVAAFMGHVNIVSQLMHHGASPNTTNVRGETALHMAARSGQAEVVRYLVQDGAQVEAKAKDDQTPLHISARLGKADIVQQLLQQGASPNAATTSGYTPLHLSAREGHEDVAAFLLDHGASLSITTKKGFTPLHVAAKYGKLEVASLLLQKSASPDAAGKSGLTPLHVAAHYDNQKVALLLLDQGASPHAAAKNGYTPLHIAAKKNQMDIATSLLEYGADANAVTRQGIASVHLAAQEGHVDMVSLLLSRNANVNLSNKSGLTPLHLAAQEDRVNVAEVLVNQGAHVDAQTKMGYTPLHVGCHYGNIKIVNFLLQHSAKVNAKTKNGYTPLHQAAQQGHTHIINVLLQNNASPNELTVNGNTALAIARRLGYISVVDTLKVVTEEIMTTTTITEKHKMNVPETMNEVLDMS
B2: Nfasc 1198 to 1214 WT [not stated] / AnkG ANK repeats (residues 38-855, R1-24) [not stated] (parent complex)
chain 1: GEGQFNEDGSFIGQYTV
chain 2: B1 chain 2

Variants of: B1
Assay: ITC; parent: 220 nM

Kd [µM] | Variant
3 | chain 2 I240Q, chain 2 L273Q
0.67 | chain 2 R281A, chain 2 Q314A
2.5 | chain 2 T302A, chain 2 N304A
1.7 | chain 2 H347A
1.3 | chain 2 V245Q
2 | chain 2 L306Q, chain 2 L339Q
1.8 | chain 2 M311Q

Variants of: B2
Assay: ITC; parent: 340 nM

Kd [µM] | Variant
1.3 | chain 1 D8A
7.7 | chain 1 D8K
9.2 | chain 1 E7A
7.1 | chain 1 F5Q
0.26 | chain 1 N6A
1.4 | chain 1 F11Q
3.2 | chain 1 Y15E
0.46 | chain 1 T16A
1 | chain 1 I12Q
